Reference: the RNAGym collection of RNA variant scans (doi:10.1073/pnas.2313332121)
Variants at the floor of the assay were thinned out.

B1: TPR 5TU (parent)
chain: GGAUCUUCUCGAUCUAACAAAAAAGACAAAUCUGCCACAAAGCUUGAGAGCAUCUUCGGAUGCAGAGGCGGCAGCCUUCGGUGGCGCGAUAGCGCCAACGUUCUCAACUAUGACACGCAAAACGCGUGCUCCGUUGAAUGGAGUUUAUCAUG

Variants of: B1
Experiment: polymerase ribozyme fitness, log enrichment relative to wild type (log ratio); higher = more active; in vitro selection for triplet polymerase activity
In short: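 After PCR construction and transcription, each subunit's mutant library from a heterodimeric triplet polymerase ribozyme was annealed with a biotinylated primer, the partner subunit and triplets. Incubation was frozen, at −7 °C, and extended constructs were gel-excised, bound to streptavidin beads and amplified by RT-PCR, in one selection round done in triplicate. Fitness is the logarithm of a genotype's enrichment divided by that of the wild type, from inverse-variance-weighted replicate averages of Illumina-sequenced inputs and outputs. The base of the logarithm is 2, and genotypes needed ≥10 input reads and ≥1 read per output.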

Row | Variant | polymerase ribozyme fitness (log ratio)
1 | GGAUCUUCUCGAUCGAACAAAAAAGACAAAUCUGCCACAAAGUUUGAGAGCAUCUUCGAAUGCAGAGGCGGCAGCCUUCGGUGGCGCGAUAGCUCCAACGUUCUCAACUAUGACACGCAAAACGCGUGCUCCGUUGAAUGGAGUUUAUCAUG [U15G C43U G59A G94U] | ≤ -4.2
2 | GGAUCUUCUCGAUCGAACAAAUAAGACAAAUCUGCCACAAAGCUUGAGAGCAUCUACGGAUGCAGCGGCGGCAGCCUUCGGUGGCGCGAUAGCGCCAACGUUCUCAACUAUGACACACAAAACGCGUGCUCCGUUGAGUGGAGUUCAUCAUG [U15G A22U U56A A66C G117A A138G U146C] | ≤ -4.2
3 | GGAUCUUCUCGAUCGAACAAAAAAGAUAAAUCUGCCACAAAGCUUGAGAGCAUCUUCGGAUGCAGAGGCGGCAGCCUUCGGUGACGCGAUAGCGCCAACGUUCUCAACUAUGACACGCAAAACGCGUGCUCCGUUGAAUGGAGUUUAUCAUG [U15G C27U G84A] | -1.78
4 | GGAUCUUCUCGAUCGAACAAAAAAGACAAAUCUGCCACAAAGCUUGCGAGCAUCUUCGGAUGCAGAGGCGGCAGCCUUCGGUCGCGCGAUAGCGCCAACGUUCUCAACUAUGACACGCAAAACGCGUGCUCCGUUGAAUGGAGUUUAUCAUG [U15G A47C G83C] | -1.85
5 | GGAUCUUCUCGAUCGAACAAAAAAGACAAAUCUGCCACAAAGCUUGAGAGCAUCUUCGGGUGCAGAGGCGGCAGCCUUCGGUGGCGGGAUAGCGCCAACGUUGUCAACUAUGACACGCAAAACGCGUGCUCCGUUGAAUGGAGUUUCUCAUG [U15G A60G C87G C103G A147C] | ≤ -4.2
6 | GGAUCUUCUCGAUCGAACAAAAAAGGCAAAUCUGCCACAAAGCUUGAGAGCUACUUCGGAUGCAAAGGCGGCAGCCUUCUGUGGCGGGAUAGCGCGGACGUUCUCAAGUAUGACACGCAAAACGCGUGCUCCGUUGAAUGGAGUUUAUCAUG [U15G A26G A52U U53A G65A G80U C87G C96G A97G C108G] | ≤ -4.2
7 | GGAUCUUCUCGAUCGAACAAAUAAGACAAAUCUGCCACAAAGCUUGAGAGCAACUUCGGAUGCAGAGGCGGCAGCCUUCGGUGGCGCGAUAGCGCCAACGUUCUCAACUAUGACACGCAACACGCGUGCUCCGUUGAAUGGAGUUUCUCAUG [U15G A22U U53A A121C A147C] | 0.0126
8 | GGAUCUUCUCGAUCGAACAAAAAAGACAAAUCUGCCACAAAGCUUGAGAGCUUCUUCGGAUGCAGAGGCGGCAGCCUUCGGUGGCGCGAUAGCGCCAACGUUCUCAACUAUGACACGCAAAACGCGUGCUCCGUUGAAUGGAGUUUAUCAUG [U15G A52U] | -1.59
9 | GGAUCUUCUCGAUCGAACAAAAAAGACAAAUCUGCCACAAAGCUUGAGAGCAUCUUCGGAUGCAGAGGCGGCAGCCUUCGGUGGCGCGAUAGCGCCAGCGUUCUCAACUAUGACACGCAAACCUCGUGCUCCGUUGAAUGGAGUUUAUCAUG [U15G A98G A122C G124U] | -1.76
10 | GGAUCUUCUCGAUCGAACAAAAAAGACAAAUCUGGCACAAAGCUUGAGACCAUCUUCGGAUGCAGAGGCGGCAGCCUUCGGUGGCGCGAUAGCGCGAACGUUCUCAACUAUGACACGCAAAACGCGUGCUCCGUUGAAUGGAUUUUAUCAUG [U15G C35G G50C C96G G143U] | ≤ -4.2
11 | GGAUCUUCUCGAUCGAAGAAAAAAGACAAAUCUGCCACAUAGCUUGAGAGCAUCUUCGGAUGCAGAGGCGGCAGCCUUCGGUGGCGCGAUAGCGCCAACGUUCUCAACUAUGACACGCAAAACGCGUGCUCCGUUGAAUGGAGUUUAUCAUG [U15G C18G A40U] | -1.5
12 | GGAUCUUCUCGAUCGAACAAAAAAGACAAAUCUGCCACAAAGCUUGAGAGCAUCUUCGGAUGCAGAGGCGGCUGCCUUCGGUGGCGCGAUAGUGCCAACGUUCUCAACUAUGACACGCAGAACGCGUGCUCCGUUGAAUGGAGUUUAUCAUG [U15G A73U C93U A120G] | -2.43
13 | GGAUCUUCUCGAUCGAACAAAAAAGACAAAUCUGCCACAAAGCUUGAGCACAUCUUCGGAUGCAGAGGCGGCAGCCUACGGUGGCGCGAUCGAGCCAACGUUCUCAACUAUGACACGCAAAACGCUUGCUCCGUUGAAUGGAGUUUAUCAUG [U15G A49C G50A U78A A91C C93A G126U] | ≤ -4.2
14 | GGAUCUUCUCGAUCGAAUAAAAAAGACAAAUCUGCCACAAAGCUUGAGAGCAUCUCCGGAUGCAGAGGCGGCAGCCUUCGGUAGCGUGAUAGCGCCAACGUUCUCAACUAUGACACGCAAAACGCGUGCUCCGUUGAAUGGAGUUUAUCAUG [U15G C18U U56C G83A C87U] | -1.58
15 | GGAUCUUCUCGAUCGAAAAAAACAGACAAAUCUGCCACAAAGCUUGAGAGCAUCUUCGGGUGCAGAGGCGGCAGCCUUCGGUGGCGCGAUAGCGCCAACGUUCGCAACUAUGACACGCAAAAGGCGUGCUCCGUUGAAUGGAGUUUAUCAUG [U15G C18A A23C A60G U104G C123G] | ≤ -4.2
16 | GGAUCUUCUCGAUCGAACAAAAAAGACGUAUCUGCGACAGAGCUUGAGAGCAUCUUCGGAUGCAGAGGCGGCAGCCUUCGGUGGCGCGAUAGCUCCAACGUCCUCAACUAUGACACGCAAAGCGCGUGCUCCGUUGAAGGGAGUUUAUCAUG [U15G A28G A29U C36G A40G G94U U102C A122G U139G] | ≤ -4.2
17 | GGAUCUUCUCGAUCGAACAAUAAAGACAAAUCUGCCACAAAGCUUGAGAGCAUCUUCGGAUGCAGAGGCGGCAGCCUUCGGUGGUGCGAUAGCGCCAACGUUCUCAACUAUGACACGCAAUACGCGUGCUCCGUUGAGUGGAGUUUAUCAUG [U15G A21U C85U A121U A138G] | -4.04
18 | GGAUCUUCUCGAUCGAACAAAAAAGUCAAAUCUGCCACAAAGCUUGAGAGCGUCUUCGGAUGCAGAGGCGGCAGCCUUCGGUAGCGCGAUAGCGCCAACGUGCUCAACUAUGACACGCAAAACGCGUGCUCCGUUGAAUGGAGUUUAUCAUG [U15G A26U A52G G83A U102G] | ≤ -4.2
19 | GGAUCUUCUCGAUCGAACAAACAAGACAAAUCUGCCACAAAGCUUGAGAGCAUCUUCGGAUGCAGAGGCGGCAGCCUUCGGUGGCGCGAUAGCGCCAACGUUCUCAACUAUGACACGCAAAACGCGUGCUCCGUUGAAUGGAGUUUAGCAUG [U15G A22C U148G] | ≤ -4.2
